This is an account of results in the supplement of paper PMC6757056.

First the molecules themselves.
B1: library; a variant is named by its letters at N, in order (parent)
chain: GCUGUCACCGGAAUACCAGCAUCGUCUUGAUGCCCUUGGAAGUCCGGUCUGAUGAGUCCNNNNNGGACGAAACAGC

± gives the standard deviation of the averaged measurements.

The variants in data set [1] derive from B1. The data set is described as follows: FACS-Seq fitted mean relative fluorescence mCherry/BFP without ligand (log10 relative fluorescence); higher = higher reporter protein expression. The note with it: HEK293T, ligand present: no. The method, then: (§1)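 Hammerhead (sTRSV) ribozyme switch libraries with a ligand aptamer grafted on stem I and a randomized N4-6 loop II, cloned into the 3' UTR of mCherry and transiently transfected into HEK293T cells; RNA-Seq 72 h post transfection with ligand added 1 h before transfection; RNA read count / plasmid DNA read count normalized to the non-cleaving sTRSVctl (x100), log10; sequences with >100 DNA reads. FACS-Seq: lentiviral library sorted into 6 bins after 48 h ligand, log-normal fit mean of mCherry/BFP scaled to controls. Printed sequences are partial switch sequences.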

Data set [2] covers variants of B1. The data set can be described thus: normalized RNA/DNA level with ligand (relative to sTRSVctl = 100) (log10 (% of sTRSVctl)); higher = less ribozyme self-cleavage, higher mRNA level. The conditions noted are these: ligand concentration (+) RNA-Seq: 5 mM, HEK293T, reporter: mCherry (pCS4076), ligand present: yes. How it is done: as §1
The variants in data set [3] derive from B1. The data set is described as follows: normalized RNA/DNA level without ligand (relative to sTRSVctl = 100) (log10 (% of sTRSVctl)); higher = less ribozyme self-cleavage, higher mRNA level. The note with it: HEK293T, reporter: mCherry (pCS4076), ligand present: no. How it is done: as §1
Variants of B1 are the subject of data set [4]. The data set can be described thus: FACS-Seq fitted mean relative fluorescence mCherry/BFP with ligand (log10 relative fluorescence); ligand concentration (+) FACS-Seq: 1 mM; higher = higher reporter protein expression. The conditions noted are these: HEK293T, ligand present: yes. The method, then:
as §1

For the variant GCUGUCACCGGAAUACCAGCAUCGUCUUGAUGCCCUUGGAAGUCCGGUCUGAUGAGUCCCAAAUGGACGAAACAGC, the “FACS-Seq fitted mean (log10)” value was found to be 0.264 ± 0.0079 in data set [1] and 0.399 ± 0.048 in data set [4]. Besides, in data set [2], the “normalized RNA/DNA level with ligand (log10)” value came out at 1.946 ± 0.0043. Moreover, in data set [3], the “normalized RNA/DNA level without ligand (log10)” value worked out at 1.6 ± 0.19.

Turning to GCUGUCACCGGAAUACCAGCAUCGUCUUGAUGCCCUUGGAAGUCCGGUCUGAUGAGUCCCAAAAGGACGAAACAGC, the “FACS-Seq fitted mean (log10)” value was determined as 0.173 ± 0.019 in data set [1] and 0.67 ± 0.071 in data set [4]. Also, the “normalized RNA/DNA level with ligand (log10)” value in data set [2] is 1.95 ± 0.029. Also, in data set [3], the “normalized RNA/DNA level without ligand (log10)” value is 1.31 ± 0.062.

On to GCUGUCACCGGAAUACCAGCAUCGUCUUGAUGCCCUUGGAAGUCCGGUCUGAUGAGUCCCAAACGGACGAAACAGC, for which the “FACS-Seq fitted mean (log10)” value was 0.851 ± 0.024 in data set [1] and 0.833 ± 0.033 in data set [4]. For the same variant, the “normalized RNA/DNA level with ligand (log10)” value in data set [2] turned out to be 1.92 ± 0.024. Moreover, in data set [3], the “normalized RNA/DNA level without ligand (log10)” value worked out at 1.82 ± 0.054.

In the case of GCUGUCACCGGAAUACCAGCAUCGUCUUGAUGCCCUUGGAAGUCCGGUCUGAUGAGUCCUAACAGGACGAAACAGC, the “FACS-Seq fitted mean (log10)” value in data set [1] stood at 0.606 ± 0.025; in data set [4] it was 0.813 ± 0.024. Besides, in data set [2], the “normalized RNA/DNA level with ligand (log10)” value is 1.99 ± 0.066. The “normalized RNA/DNA level without ligand (log10)” value in data set [3] stood at 1.55 ± 0.053.

Consider GCUGUCACCGGAAUACCAGCAUCGUCUUGAUGCCCUUGGAAGUCCGGUCUGAUGAGUCCGAAACGGACGAAACAGC, for which the “FACS-Seq fitted mean (log10)” value in data set [1] was 0.594 ± 0.018; in data set [4], 0.621 ± 0.075. Also, in data set [2], the “normalized RNA/DNA level with ligand (log10)” value came to 1.97 ± 0.025. In addition, in data set [3], the “normalized RNA/DNA level without ligand (log10)” value stood at 1.77 ± 0.072.

Turning to GCUGUCACCGGAAUACCAGCAUCGUCUUGAUGCCCUUGGAAGUCCGGUCUGAUGAGUCCGAAAAGGACGAAACAGC, the “FACS-Seq fitted mean (log10)” value was found to be 0.381 ± 0.0065 in data set [1] and 0.809 ± 0.014 in data set [4]. Moreover, the “normalized RNA/DNA level with ligand (log10)” value in data set [2] came out at 1.96 ± 0.033. In addition, the “normalized RNA/DNA level without ligand (log10)” value in data set [3] is 1.3 ± 0.14.

GCUGUCACCGGAAUACCAGCAUCGUCUUGAUGCCCUUGGAAGUCCGGUCUGAUGAGUCCGAAAUGGACGAAACAGC: the “FACS-Seq fitted mean (log10)” value came to 0.796 ± 0.0017 in data set [1] and 1.04 ± 0.097 in data set [4]. For the same variant, the “normalized RNA/DNA level with ligand (log10)” value in data set [2] was 2.01 ± 0.038. The “normalized RNA/DNA level without ligand (log10)” value in data set [3] was determined as 1.71 ± 0.059.

Take GCUGUCACCGGAAUACCAGCAUCGUCUUGAUGCCCUUGGAAGUCCGGUCUGAUGAGUCCGAAAGGGACGAAACAGC: the “FACS-Seq fitted mean (log10)” value came to 1.046 ± 0.0068 in data set [1] and 1.08 ± 0.14 in data set [4]. In data set [2], the “normalized RNA/DNA level with ligand (log10)” value worked out at 1.96 ± 0.022. Besides, the “normalized RNA/DNA level without ligand (log10)” value in data set [3] is 1.66 ± 0.044.

On to GCUGUCACCGGAAUACCAGCAUCGUCUUGAUGCCCUUGGAAGUCCGGUCUGAUGAGUCCGAACAGGACGAAACAGC, for which the “FACS-Seq fitted mean (log10)” value in data set [1] was determined as 0.228 ± 0.096; in data set [4] it was 0.116 ± 0.032. In addition, the “normalized RNA/DNA level with ligand (log10)” value in data set [2] worked out at 1.92 ± 0.025. The “normalized RNA/DNA level without ligand (log10)” value in data set [3] amounted to 1.6 ± 0.015.

With GCUGUCACCGGAAUACCAGCAUCGUCUUGAUGCCCUUGGAAGUCCGGUCUGAUGAGUCCAAAAGGGACGAAACAGC, the figures for the “FACS-Seq fitted mean (log10)” value in data set [1] and in data set [4] were 0.487 ± 0.041 and 0.638 ± 0.13, respectively. The “normalized RNA/DNA level with ligand (log10)” value in data set [2] was found to be 1.971 ± 0.00093. For the same variant, the “normalized RNA/DNA level without ligand (log10)” value in data set [3] was determined as 1.66 ± 0.028.

With GCUGUCACCGGAAUACCAGCAUCGUCUUGAUGCCCUUGGAAGUCCGGUCUGAUGAGUCCAAAACGGACGAAACAGC, the entries for the “FACS-Seq fitted mean (log10)” value in data set [1] and in data set [4] were 0.834 ± 0.057 and 0.873 ± 0.075, respectively. Besides, the “normalized RNA/DNA level with ligand (log10)” value in data set [2] came to 1.944 ± 0.014. In data set [3], the “normalized RNA/DNA level without ligand (log10)” value is 1.77 ± 0.066.

Regarding GCUGUCACCGGAAUACCAGCAUCGUCUUGAUGCCCUUGGAAGUCCGGUCUGAUGAGUCCAAAAUGGACGAAACAGC, the “FACS-Seq fitted mean (log10)” value in data set [1] was 0.464 ± 0.031; in data set [4], 0.572 ± 0.045. The “normalized RNA/DNA level with ligand (log10)” value in data set [2] was 2.02 ± 0.028. Also, the “normalized RNA/DNA level without ligand (log10)” value in data set [3] was found to be 1.68 ± 0.028.

Regarding GCUGUCACCGGAAUACCAGCAUCGUCUUGAUGCCCUUGGAAGUCCGGUCUGAUGAGUCCAAAAAGGACGAAACAGC, the “FACS-Seq fitted mean (log10)” value is -0.362 ± 0.072 in data set [1] and 0.356 ± 0.066 in data set [4]. For the same variant, in data set [2], the “normalized RNA/DNA level with ligand (log10)” value turned out to be 1.85 ± 0.075. Also, the “normalized RNA/DNA level without ligand (log10)” value in data set [3] turned out to be 1.11 ± 0.061.

Turning to GCUGUCACCGGAAUACCAGCAUCGUCUUGAUGCCCUUGGAAGUCCGGUCUGAUGAGUCCUAAACGGACGAAACAGC, the figures for the “FACS-Seq fitted mean (log10)” value in data set [1] and in data set [4] were 0.86 ± 0.034 and 0.924 ± 0.042, respectively. Besides, in data set [2], the “normalized RNA/DNA level with ligand (log10)” value came out at 1.978 ± 0.013. In addition, the “normalized RNA/DNA level without ligand (log10)” value in data set [3] is 1.91 ± 0.096.

Take GCUGUCACCGGAAUACCAGCAUCGUCUUGAUGCCCUUGGAAGUCCGGUCUGAUGAGUCCUAAAAGGACGAAACAGC: the entries for the “FACS-Seq fitted mean (log10)” value in data set [1] and in data set [4] were 0.164 ± 0.019 and 0.589 ± 0.038, respectively. Also, the “normalized RNA/DNA level with ligand (log10)” value in data set [2] is 1.99 ± 0.029. Besides, the “normalized RNA/DNA level without ligand (log10)” value in data set [3] came out at 1.206 ± 0.0047.

As for GCUGUCACCGGAAUACCAGCAUCGUCUUGAUGCCCUUGGAAGUCCGGUCUGAUGAGUCCUAAAGGGACGAAACAGC, the “FACS-Seq fitted mean (log10)” value in data set [1] came to 0.272 ± 0.033; in data set [4], 0.497 ± 0.037. In data set [2], the “normalized RNA/DNA level with ligand (log10)” value was 2.041 ± 0.007. Moreover, the “normalized RNA/DNA level without ligand (log10)” value in data set [3] came to 1.84 ± 0.11.

As for GCUGUCACCGGAAUACCAGCAUCGUCUUGAUGCCCUUGGAAGUCCGGUCUGAUGAGUCCUAAAUGGACGAAACAGC, the “FACS-Seq fitted mean (log10)” value in data set [1] came out at 0.912 ± 0.013; in data set [4] it was 0.9829 ± 0.0075. Besides, the “normalized RNA/DNA level with ligand (log10)” value in data set [2] stood at 1.978 ± 0.0035. Besides, the “normalized RNA/DNA level without ligand (log10)” value in data set [3] was 1.84 ± 0.13.

GCUGUCACCGGAAUACCAGCAUCGUCUUGAUGCCCUUGGAAGUCCGGUCUGAUGAGUCCCAACAGGACGAAACAGC: the “FACS-Seq fitted mean (log10)” value in data set [1] came out at 0.729 ± 0.046; in data set [4], 0.886 ± 0.058. In data set [2], the “normalized RNA/DNA level with ligand (log10)” value came out at 1.98 ± 0.018. Also, the “normalized RNA/DNA level without ligand (log10)” value in data set [3] came out at 1.53 ± 0.0043.
